Test results reported in patent publication US20190184035, “BCL11A HOMING ENDONUCLEASE VARIANTS, COMPOSITIONS, AND METHODS OF USE” (bluebird bio, Inc., published 2019).

T1: BCL11A.B4.A3 I-OnuI homing endonuclease variant (Ophiostoma novo-ulmi)
T1 chain: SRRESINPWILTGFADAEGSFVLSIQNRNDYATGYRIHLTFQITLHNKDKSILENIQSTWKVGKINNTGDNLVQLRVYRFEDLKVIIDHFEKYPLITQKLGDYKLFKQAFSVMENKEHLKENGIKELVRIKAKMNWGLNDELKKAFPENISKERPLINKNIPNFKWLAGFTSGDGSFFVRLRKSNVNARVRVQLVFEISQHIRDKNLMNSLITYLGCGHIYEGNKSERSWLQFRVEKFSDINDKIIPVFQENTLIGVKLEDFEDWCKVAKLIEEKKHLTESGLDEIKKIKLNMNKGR

T2: BCL11A.B4.A3 I-OnuI homing endonuclease variant (mammalian expression) (Ophiostoma novo-ulmi)
T2 chain: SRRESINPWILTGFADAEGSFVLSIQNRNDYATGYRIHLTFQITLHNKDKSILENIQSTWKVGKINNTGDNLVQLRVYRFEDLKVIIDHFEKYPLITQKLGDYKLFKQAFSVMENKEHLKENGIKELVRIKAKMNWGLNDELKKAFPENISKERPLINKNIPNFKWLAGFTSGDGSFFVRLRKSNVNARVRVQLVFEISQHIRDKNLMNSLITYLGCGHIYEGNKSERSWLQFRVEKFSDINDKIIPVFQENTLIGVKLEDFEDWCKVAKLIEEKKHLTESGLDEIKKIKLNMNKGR


Key:
[1] = test system: CCR5 megaTAL (Artificial); assay: cell_activity; conditions: human CD34+ cells; full megaTAL site not given, HE site given
[2] = molecular target: T1, BCL11A.B4.A3 I-OnuI homing endonuclease …; assay: flow; yeast surface display equilibrium binding titration
Description: The DNA binding affinity and cleavage specificity of the I-OnuI variant BCL11A.B4.A3 was characterized. A plasmid encoding the BCL11A.B4.A3 variant identified during reprogramming (SEQ ID NO: 34) was transformed into S. cerevisiae for surface display.

[3] = molecular target: T2, BCL11A.B4.A3 I-OnuI homing endonuclease …; assay: cell_activity; HEK 293T chromosomal mCherry reporter; conditions: tags: mammalian expression plasmid
Protocol: The activity of reprogrammed I-OnuI HEs that target the GATA-1 motif in the BCL11A gene was measured using a chromosomally integrated fluorescent reporter system (Certo et. al., 2011). Fully reprogrammed I-OnuI HEs that bind and cleave the BCL11A target sequence were cloned into mammalian expression plasmids and then individually transfected into a HEK 293T […] cell line that was reprogrammed to contain the BCL11A target sequence upstream of an out-of-frame gene encoding the fluorescent mCherry protein. Cleavage of the embedded target site by the HE and the subsequent accumulation of small insertions or deletions, caused by DNA repair via the non-homologous end joining (NHEJ) pathway, results in approximately one out of three repaired loci placing the fluorescent reporter gene back “in-frame”. mCherry fluorescence is therefore a readout of endonuclease activity at the chromosomally embedded target sequence. […] FIG. 4A.
A secondary I-OnuI variant library was generated by performing random mutagenesis one of the reprogrammed I-OnuI HEs that targets the BCL11A target site, identified in the initial reporter screen (BCL11.A.B4, SEQ ID NO: 6). In addition, display-based flow sorting was performed under more stringent cleavage conditions (pH adjusted to 7.2) in an effort to isolate variants with improved catalytic efficiency. FIG. 4B. […]

Molecule	activity [1]	Kd [2]	activity [3]
CTTCCAGGAATTCTTTGGCCTG (double strand) [CCR5 HE target site]	10 % indels	–	–
BCL11A HE target site (dsDNA) DNA 1: CAGTTGCTTTTATCACAGGCTC DNA 2: GAGCCTGTGATAAAAGCAACTG	–	~0.5 nM	~3 fold vs BCL11A.B4
